This note sets out measurements from US20170313764A1 (ACADEMISCH MEDISCH CENTRUM, published 2017).

As usually defined, the Kd is the concentration at which binding is half-saturated. A higher Kd goes with weaker binding. In general, koff refers to the first-order rate constant of dissociation. A lower koff goes with a long-lived complex.

Test [1] concerns the target T1, soluble E2-his6-sortase tag from HCV isolate AMS.2b.20876551.kloon21 (genotype 2b) (Hepatitis C virus genotype 2b).
T1 chain: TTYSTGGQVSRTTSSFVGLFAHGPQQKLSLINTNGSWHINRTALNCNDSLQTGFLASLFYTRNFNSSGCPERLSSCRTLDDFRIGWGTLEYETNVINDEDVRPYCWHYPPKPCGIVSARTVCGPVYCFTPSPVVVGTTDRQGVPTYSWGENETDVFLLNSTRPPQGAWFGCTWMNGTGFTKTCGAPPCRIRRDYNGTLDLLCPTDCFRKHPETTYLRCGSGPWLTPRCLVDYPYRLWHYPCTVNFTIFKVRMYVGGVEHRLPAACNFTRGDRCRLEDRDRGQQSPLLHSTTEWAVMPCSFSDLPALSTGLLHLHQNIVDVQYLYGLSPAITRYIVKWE
As to the kind of experiment: SPR (IBIS MX96), antibody spotted on chip, soluble E2-his as analyte.

The target in test [2] is E1E2 of HCV isolate AMS.3a.21071213 (genotype 3a) (Hepatitis C virus genotype 3a). As to the kind of experiment: cell-based or functional assay.
Test [3] has as its target E1E2 of HCV isolate AMS.1b.20877857 (genotype 1b) (Hepatitis C virus genotype 1b). As to the kind of experiment: cell-based or functional assay.
In test [4] the target is E1E2 of HCV isolate UKN4.11.1 (genotype 4) (Hepatitis C virus genotype 4). As to the kind of experiment: cell-based or functional assay.
The target in test [5] is E1E2 of HCV isolate AMS.2b.20876551.kloon21 (genotype 2b) (Hepatitis C virus genotype 2b). As to the kind of experiment: cell-based or functional assay.
For test [6], the target named is E1E2 of HCV isolate AMS.4d.20875969 (genotype 4d) (Hepatitis C virus genotype 4d). As to the kind of experiment: cell-based or functional assay.
Test [7] has as its target T2, HCV E1E2 protein in transfected 293T cells (CD81 competition assay; isolate not stated).
T2 construct: also called E1E2 transfected cells
Put plainly: flow cytometry competition: E1E2-transfected 293T cells pre-incubated with antibody, then CD81-LEL (mouse Fc) added and detected; blocked ligand CD81-LEL.

Test [8] deals with E1E2 of HCV isolate H77 with single mutation D698A (Hepatitis C virus genotype 1a, strain …, UniProt P27958 192-383; P27958 384-746). As to the kind of experiment: ELISA, GNA-captured E1E2 lysate; EC50 wild type / EC50 mutant. In general terms: In an ELISA, binding on a coated surface is turned into a signal by an enzyme label.
In test [9] the target is E1E2 of HCV isolate H77 with single mutation T526A (Hepatitis C virus genotype 1a, strain …, UniProt P27958 192-383; P27958 384-746). Described as above.
Test [10] addresses E1E2 of HCV isolate H77 with single mutation Y527A (Hepatitis C virus genotype 1a, strain …, UniProt P27958 192-383; P27958 384-746). The description is as above.
For test [11], the target named is E1E2 of HCV isolate H77 with single mutation Y443A (Hepatitis C virus genotype 1a, strain …, UniProt P27958 192-383; P27958 384-746). The test is described as above.
For test [12], the target named is E1E2 of HCV isolate H77 with single mutation G530A (Hepatitis C virus genotype 1a, strain …, UniProt P27958 192-383; P27958 384-746). The description is as above.
Test [13] addresses E1E2 of HCV isolate H77 with single mutation N415A (Hepatitis C virus genotype 1a, strain …, UniProt P27958 192-383; P27958 384-746). The test is described as above.
For test [14], the target named is E1E2 of HCV isolate H77 with single mutation D535A (Hepatitis C virus genotype 1a, strain …, UniProt P27958 192-383; P27958 384-746). Described as above.
Test [15] has as its target E1E2 of HCV isolate H77 with single mutation R657A (Hepatitis C virus genotype 1a, strain …, UniProt P27958 192-383; P27958 384-746). The test is described as above.
The target in test [16] is E1E2 of HCV isolate H77 with single mutation Y485A (Hepatitis C virus genotype 1a, strain …, UniProt P27958 192-383; P27958 384-746). The test is described as above.
Test [17] concerns the target E1E2 of HCV isolate H77 with single mutation G436A (Hepatitis C virus genotype 1a, strain …, UniProt P27958 192-383; P27958 384-746). Described as above.
Test [18] deals with E1E2 of HCV isolate H77 with single mutation S424A (Hepatitis C virus genotype 1a, strain …, UniProt P27958 192-383; P27958 384-746). The description is as above.
In test [19] the target is E1E2 of HCV isolate H77 with single mutation W616A (Hepatitis C virus genotype 1a, strain …, UniProt P27958 192-383; P27958 384-746). The description is as above.
Test [20] addresses E1E2 of HCV isolate H77 with single mutation A439G (Hepatitis C virus genotype 1a, strain …, UniProt P27958 192-383; P27958 384-746). The test is described as above.
The target of test [21] is E1E2 of HCV isolate H77 with single mutation W529A (Hepatitis C virus genotype 1a, strain …, UniProt P27958 192-383; P27958 384-746). Described as above.
Test [22] addresses E1E2 of HCV isolate H77 with single mutation T435A (Hepatitis C virus genotype 1a, strain …, UniProt P27958 192-383; P27958 384-746). The test is described as above.
For test [23], the target named is T3, soluble E2-his6-sortase tag from HCV isolate H77 (genotype 1a) (Hepatitis C virus genotype 1a, strain …, UniProt P27958 384-717).
T3 construct: also called E2-his6-ST; E2 genotype 1a
Put plainly: SPR (IBIS MX96), antibody spotted on chip, soluble E2-his as analyte.

For test [24], the target named is E1E2 of HCV isolate H77 (genotype 1a), wild type (Hepatitis C virus genotype 1a, strain …, UniProt P27958 192-383; P27958 384-746). As to the kind of experiment: cell-based or functional assay.
Test [25] concerns the target E1E2 of HCV isolate H77 with single mutation W420A (Hepatitis C virus genotype 1a, strain …, UniProt P27958 192-383; P27958 384-746). Put plainly: ELISA, GNA-captured E1E2 lysate; EC50 wild type / EC50 mutant.
Test [26] has as its target E1E2 of HCV isolate H77 with single mutation G418A (Hepatitis C virus genotype 1a, strain …, UniProt P27958 192-383; P27958 384-746). Described as above.
The target of test [27] is E1E2 of HCV isolate H77 with single mutation L413A (Hepatitis C virus genotype 1a, strain …, UniProt P27958 192-383; P27958 384-746). Described as above.

B1: AT12-009 (antibody, V domains shown)
VH: SSVRVSCKASGDTFKTHAISWVRQAPGQGLEWVGGTVRQAPGDGLELLGGFVPILAPANDAQKFQGRVTITADGSTGPVYMDLSTLTSEDTAMYYCVTSLSEPIPRSCRGGRCYSGPFDAFGVWGQGTMVTVSS
VL: ETMLTQSPVTLSVSPGERATLSCRASQSIGTNLAWYQQKPGQAPRLLIHGASTRATGVPVSFSGSGSGTEFTLTISSLQSEDFAVYYCQQYNNWPLTFGGGTKVDFKR
Take B1: binding in [1] was put at a Kd of 2.3 nM. For the same molecule, the koff in test [1] worked out at 0.0002 s⁻¹. Further, the “IC50, HCVpp neutralization” value stood at 0.14 µg/mL in test [2]; 0.001 µg/mL in test [3]; 0.19 µg/mL in test [4]; 0.06 µg/mL in [5]; 0.72 µg/mL in [6]. Also, the “IC90, HCVpp neutralization” value in test [2] turned out to be 5.34 µg/mL; in test [3], 0.13 µg/mL; in [4], 14.1 µg/mL; in test [5], 6.17 µg/mL; in test [6] it was 47.4 µg/mL. Further, the “IC50 (read off the curve)” value in test [7] was roughly 2 µg/mL.

B2: AT13-021 (antibody, V domains shown)
VH: QVQLVQSGAEVKKPGSSVKVSCKASGGTFNTHAFSWVRQAPGEGLEWMGGISPMSGTPNYAQKFQGRLTITADESTSTGYMELRSLTSEDTAVYYCARELIGYCTGGNCYSFGDFWGQGTLITVSS
VL: EIVMTQSPATLSVSPGERATLSCRASQSVSSHLAWYQHKPGQAPRLLISGASTRAVGVPARFSGSGSGTEFTLTISSLQSEDFAVYYCHQYNTWPRGFGQGTKVDFKR
Take B2: the “relative binding, mutant vs wild type” value is 80% in test [8]; 27% in [9]; 21% in test [10]; 87% in [11]; less than 10% in test [12]; 119% in [13]. Also, the “relative binding, mutant vs wild type” value in test [14] is less than 10%; in test [15], 88%; in [16] it was 114%; in [17] it was less than 10%; in test [18] it was 17%; in [19] it was less than 10%. Moreover, the “relative binding, mutant vs wild type” value in test [20] was found to be 53%; in test [21] it was 13%; in test [22], 21%; in test [25] it was 103%; in test [26] it was 131%; in test [27], 185%. The Kd in [1] was 2 nM; in [23], 14.2 nM. The koff in [1] came out at 0.0001 s⁻¹; in test [23], 0.00036 s⁻¹. Also, the “IC50, HCVpp neutralization” value amounted to 0.25 µg/mL in test [2]; 0.09 µg/mL in [3]; 0.3 µg/mL in test [24]; 0.94 µg/mL in test [4]; 0.12 µg/mL in test [5]; 0.94 µg/mL in test [6]. Further, the “IC90, HCVpp neutralization” value was 12.3 µg/mL in test [2]; 5.67 µg/mL in test [3]; 9.98 µg/mL in test [24]; 13.9 µg/mL in [4]; 8.84 µg/mL in [5]; greater than 50 µg/mL in test [6].

B3: AT12-011 (antibody, V domains shown)
VH: QVQLVQSGAEVKKPGSSVKVSCKASGGTFSGYGITWVRQAPGQGLEWMGTIIPVSATETYAQRLQGRVTISADEHSTTSYMEVSSLKSEDTALYYCARHDYFWGTPLDIWGQGTMVIVSS
VL: EIVLTQSPDFQSVTPKEKVTITCRASQSIGSNLHWYQQKPGQSPKLLIKYASQSFSGVPSRFSGSGSGTDFTLTINSLEAEDAATYFCHQSYNLPRTFGGGTKVEIKR
Regarding B3, the Kd in test [1] stood at 0.2 nM; in test [23], 0.3 nM. The “IC50, HCVpp neutralization” value in test [2] was greater than 50 µg/mL; in [3] it was 4.31 µg/mL; in test [4], greater than 50 µg/mL; in [5], 27.5 µg/mL; in test [6] it was greater than 50 µg/mL. In addition, the “IC90, HCVpp neutralization” value in test [2], in [3], in test [4], in test [5] and in [6] was greater than 50 µg/mL in each case.
